# Laboratory results from article PMC2363969 (British Journal of Cancer, 2001).
# B1: gp100/pmel17 283-304 (peptide)
# peptide: PGPVTAQVVLQAAIPLTSCGSS
# notes: gp100/pmel17 melanoma-associated antigen, residues 283-304; also called gp100283-304; g283; source: synthetic peptide (FMOC chemistry, UPCI Peptide Synthesis Facility), >90% pure
# B2: gp100/pmel17 506-522 (peptide)
# peptide: EGDAFELTVSCQGGLPK
# notes: gp100/pmel17 melanoma-associated antigen, residues 506-522; also called gp100506-522; g506; source: synthetic peptide (FMOC chemistry, UPCI Peptide Synthesis Facility), >90% pure
# B3: gp100/pmel17 167-189 (peptide)
# peptide: VSGLSIGTGRAMLGTHTMEVTVY
# notes: gp100/pmel17 melanoma-associated antigen, residues 167-189; also called gp100167-179; g167; source: synthetic peptide (FMOC chemistry, UPCI Peptide Synthesis Facility), >90% pure
# B4: gp100/pmel17 540-561 (peptide)
# peptide: LCQPVLPSPACQLVLHQILKGG
# notes: gp100/pmel17 melanoma-associated antigen, residues 540-561; also called gp100540-561; g540; source: synthetic peptide (FMOC chemistry, UPCI Peptide Synthesis Facility), >90% pure
# B5: gp100/pmel17 6-26 (peptide)
# peptide: KRCLLHLAVIGALLAVGATKV
# notes: gp100/pmel17 melanoma-associated antigen, residues 6-26; also called gp1006-26; g6; source: synthetic peptide (FMOC chemistry, UPCI Peptide Synthesis Facility), >90% pure
# Target: HLA-DRB1*0401 (human)
# Assay: radioligand binding; solid-state competitive-binding assay (as in Southwood et al, 1998): the peptide blocks the binding of a radio-labeled reference peptide to purified HLA-DR4 complexes; IC50 in nM
# Conditions: both partners purified
row,Binder,IC50 [nM]
1,B1,2890
2,B2,3210

# Target: HLA-DRB1*0404 (human)
# Assay: as above
# Conditions: both partners purified
row,Binder,IC50 [nM]
1,B3,372
2,B2,3550
3,B4,614
4,B5,335
